Results reported in patent publication US20210220460.

How the values were obtained:
[1] = tested on: DsbA1-His of N. meningitidis expressed in A. baylyi (pBAV-dsbA1-His, C-6X His)
[2] = tested on: ComP-His (pilin-like protein ComP of A. baylyi with C-6X His tag)
[3] = tested on: OmpA-His (A1S_1193) expressed in A. baylyi
[4] = tested on: PilAM2, major type IVa pilin of A. nosocomialis strain M2
[5] = tested on: PilA17978-His (pilin of A. baumannii ATCC 17978 with C-terminal hexa-histidine tag)
[6] = tested on: OmpA-His (A1S_1193 with C-terminal 5x His tag), expressed in strain M2 backgrounds

Q: For “Pg1LADP1, general O-OTase of A. baylyi ADP1 (ACIAD0103)”, which “DsbA1-His electrophoretic mobility, western blot of A. baylyi lysates” value [1] is on record?
A: displayed an increased electrophoretic mobility in the Δpg1LADP1 background relative to wild-type and Δpg1LComP backgrounds

Q: What about the “ComP-His electrophoretic mobility, western blot” value [2] of the same substance?
A: Pg1LADP1 is not required for ComP post-translational modification

Q: And the “OmpA-His electrophoretic mobility, western blot of A. baylyi lysates” value [3]?
A: displayed an increased electrophoretic mobility in the Δpg1LADP1 background relative to wild-type and Δpg1LComP backgrounds

Q: For “Pg1LComP, ComP-specific O-OTase of A. baylyi ADP1 (ACIAD3337)”, which “heterologous PilAM2 electrophoretic mobility, western blot” value [4] is on record?
A: Pg1LComP was unable to glycosylate the pilins recognized by TfpO

Q: And the “ComP-His electrophoretic mobility, western blot” value [2]?
A: pg1LComP (ACIAD3337) is required for ComP modification

Q: What about the “glycosylation in E. coli CLM24, western blot with anti-his and anti-glycan antibodies” value [2] of the same substance?
A: lower electrophoretic mobility bands that react to the anti-his and anti-glycan antibodies indicate glycosylation of ComP by the C. jejuni LLO

Q: And the “glycosylation in E. coli CLM24 with the S. pneumoniae serotype 14 CPS locus, western blot” value [2]?
A: Lower electrophoretic mobility bands in panel A that react to both Anti-His and Anti-Glycan antibodies in lane 2 relative to lane 1

Q: What about the “heterologous ComP-His electrophoretic mobility, western blot” value [2] of the same substance?
A: ComP-His was only modified in A. baylyi ADP1

Q: And the “heterologous PilA17978 electrophoretic mobility, western blot” value [5]?
A: PilA17978 was not glycosylated by Pg1LComP

Q: With “Pg1LM2, general O-OTase of A. nosocomialis strain M2 (ORF M215_10475)” as the substance, how does the “OmpA-His electrophoretic mobility, western blot; ESI-TOF-MS/MS” value [6] read?
A: OmpA-His from the M2Δpg1L::kan and the M2ΔweeH::kan backgrounds migrated at an increased electrophoretic mobility, consistent with the lack of a post-translational modification

Q: Which “MS/MS analysis of PilA from surface shear preparations” value [4] does the source give for “TfpOM2, type four pilin specific O-oligosaccharyltransferase of A. nosocomialis strain M2 (ORF M215_10480)” here?
A: PilA from the M2ΔtfpO::kanΔpilT::strep mutant was unmodified
